Target: GST-LIF05 (mutant human LIF, LIFR antagonist, as glutathione-S-transferase fusion protein) (human) (UniProt P15018)
Assay: SPR

Chain of GST-LIF05 (mutant human LIF, LIFR antagonist, as glutathione-S-transferase fusion protein) (human) (P15018 23-202, change not shown): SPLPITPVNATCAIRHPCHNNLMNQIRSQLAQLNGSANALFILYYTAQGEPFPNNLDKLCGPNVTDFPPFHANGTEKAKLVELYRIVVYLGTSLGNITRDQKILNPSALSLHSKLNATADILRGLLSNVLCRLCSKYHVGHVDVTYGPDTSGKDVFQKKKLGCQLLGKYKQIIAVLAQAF

B1: soluble LIFR (leukemia inhibitory factor receptor) (receptor)
chain: QKKGAPHDLKCVTNNLQVWNCSWKAPSGTGRGTDYEVCIENRSRSCYQLEKTSIKIPALSHGDYEITINSLHDFGSSTSKFTLNEQNVSLIPDTPEILNLSADFSTSTLYLKWNDRGSVFPHRSNVIWEIKVLRKESMELVKLVTHNTTLNGKDTLHHWSWASDMPLECAIHFVEIRCYIDNLHFSGLEEWSDWSPVKNISWIPDSQTKVFPQDKVILVGSDITFCCVSQEKVLSALIGHTNCPLIHLDGENVAIKIRNISVSASSGTNVVFTTEDNIFGTVIFAGYPPDTPQQLNCETHDLKEIICSWNPGRVTALVGPRATSYTLVESFSGKYVRLKRAEAPTNESYQLLFQMLPNQEIYNFTLNAHNPLGRSQSTILVNITEKVYPHTPTSFKVKDINSTAVKLSWHLPGNFAKINFLCEIEIKKSNSVQEQRNVTIKGVENSSYLVALDKLNPYTLYTFRIRCSTETFWKWSKWSNKKQHLTTEASPSKGPDTWREWSSDGKNLIIYWKPLPINEANGKILSYNVSCSSDEETQSLSEIPDPQHKAEIRLDKNDYIISVVAKNSVGSSPPSKIASMEIPNDDLKIEQVVGMGKGILLTWHYDPNMTCDYVIKWCNSSRSEPCLMDWRKVPSNSTETVIESDEFRPGIRYNFFLYGCRNQGYQLLRSMIGYIEELAPIVAPNFTVEDTSADSILVKWEDIPVEELRGFLRGYLFYFGKGERDTSKMRVLESGRSDIKVKNITDISQKTLRIADLQGKTSYHLVLRAYTDGGVGPEKSMYVVTKENS
Kd: 4.72 nM
koff: 0.00265 s⁻¹
kon: 562000 M⁻¹ s⁻¹
